# Experimental data taken from article PMC10649420, “Expression Patterns and Functional Analysis of Three SmTAT Genes Encoding Tyrosine Aminotransferases in Salvia miltiorrhiza” (International Journal of Molecular Sciences, 2023).
# B1: SmTAT2 (Salvia miltiorrhiza) (protein)
# chain: MPNSTERERERELSMENGGSAAARWRFEGNERLILAGGVTVRGVLNTVIGNLDGNDTRPVIPLGHGDPSAFPSFRTSPFAEDAVCSAVRSTKFNGYSSTVGIPAARSAVAEYLSKDLPYKLSPDDVFLTIGCTQALEAVVTVLARPGANLLLPRPGFPYYEARAGFCSLEFRHFDLLPEQDWEVDLASVEALADENTVAMVIINPGNPCGNVFKYEHLKKVAETARKLGILVISDEVYDHLTFGSNPFVPMGVFASIAPILTLGSISKRWIVPGWRLGWLVTNDPDGILTKQGIVDSIKGFLNISADPATFMQGAVPQILENTPSDFFQKIVSTLRETADICYERSKEIPCITCPSRPEGSMFAMVKLNLSLLEGIEDDMDFCCKLAKEESVILLPGFAVGLKNWLRVTFAIEPSSLDDGFLRIKAFHQRHAKKQ
# B2: SmTAT1 (Salvia miltiorrhiza) (protein)
# chain: MELQNPAQEIDAPTTITIKGILGLLMSSTDPKESGKRVISLGIGDPTAYSCFHASNAAQEGVVEALRSTKFNGYAPTAGLPQTREAIAEYLSRDLPYKLPADSVYVTAGCTQAIEIALSVLARPGANILLPRPCFPIYGLCASFRNIEVRYFDLHPEQGWEVDLDAVADLADHNTVAMVIINPGNPCGNVYSYQHLKKIAETAKRLGIVVIADEVYGHLAFGANPFVPMGIFGSIAPVVTLGSLSKRWLVPGWRLGWLVINDPDGSLMSPKFVERIKKYCDICGGPATFIQAAVPEIVEQTQEVFFRKTINILKQTSDICYQKIEDINGITCPTKPKGAMAFMVKLNLSRMKDISDDIDFCFKLAKEESVIILPGLAVGLKNWIRITFAVDVPALEEAMERLKSFCERHSY
# notes: full ORF 1236 bp (about 411 residues) with GST tag (pGEX-4T-1), soluble from E. coli Arctic Express (DE3)
# What was measured:
# Test in all cases: aminotransferase assay, product absorbance, microplate reader
# Assay type in all cases: biochemical, Salvia miltiorrhiza
# [1] = system: SmTAT3; settings: 100 μM PLP, 30 °C, 30 min, 20 μg/mL enzyme
# Description: aminotransferase assay, product absorbance, microplate reader on SmTAT3
# [2] = substrate: N[C@@H](Cc1ccc(O)cc1)C(=O)O; settings: 10 mM alpha-ketoglutarate, 100 μM PLP, 30 °C, 30 min, 20 μg/mL enzyme
# Description: (§1) aminotransferase assay, product absorbance, microplate reader on SmTAT2
# [3] = substrate: N[C@@H](Cc1ccccc1)C(=O)O; settings: 10 mM alpha-ketoglutarate, 100 μM PLP, 30 °C, 30 min, 20 μg/mL enzyme
# Description: as §1
# [4] = substrate: O=C(O)C(=O)Cc1ccc(O)cc1; settings: 10 mM glutamate, 100 μM PLP, 30 °C, 30 min, 20 μg/mL enzyme, reverse reaction
# Description: as §1
# [5] = substrate: O=C(O)C(=O)Cc1ccccc1; settings: 10 mM glutamate, 100 μM PLP, 30 °C, 30 min, 20 μg/mL enzyme, reverse reaction
# Description: as §1
# [6] = substrate: N[C@@H](Cc1ccc(O)cc1)C(=O)O; settings: 10 mM alpha-ketoglutarate, 100 μM PLP, 30 °C, 30 min, 1 μg/mL enzyme
# Description: (§2) aminotransferase assay, product absorbance, microplate reader on SmTAT1
# [7] = substrate: N[C@@H](Cc1ccccc1)C(=O)O; settings: 10 mM alpha-ketoglutarate, 100 μM PLP, 30 °C, 30 min, 1 μg/mL enzyme
# Description: as §2
# [8] = substrate: O=C(O)C(=O)Cc1ccc(O)cc1; settings: 10 mM glutamate, 100 μM PLP, 30 °C, 30 min, 1 μg/mL enzyme, reverse reaction
# Description: as §2
# [9] = substrate: O=C(O)C(=O)Cc1ccccc1; settings: 10 mM glutamate, 100 μM PLP, 30 °C, 30 min, 1 μg/mL enzyme, reverse reaction
# Description: as §2
# [10] = 10 mM glutamate, reverse reaction
molecule,measurement,setting,value
N[C@@H](Cc1ccc(O)cc1)C(=O)O [tyrosine],Km,[1]; 10 mM alpha-ketoglutarate,2730 ± 1610 µM
O=C(O)C(=O)Cc1ccccc1 [phenylpyruvate],Km,[1]; [10],3910 ± 2010 µM
N[C@@H](Cc1ccccc1)C(=O)O [phenylalanine],Km,[1]; 10 mM alpha-ketoglutarate,5470 ± 3230 µM
O=C(O)C(=O)Cc1ccc(O)cc1 [4-hydroxyphenylpyruvate],Km,[1]; [10],2220 ± 220 µM
B1,Km,[2],3470 ± 1690 µM
same,Vmax,[2],0.0486 µmol/min/mg
same,kcat,[2],0.15 ± 0.03 s⁻¹
same,kcat/Km,[2],60 ± 40 M⁻¹ s⁻¹
same,Km,[3],6930 ± 3390 µM
same,Vmax,[3],0.109 µmol/min/mg
same,Km,[4],480 ± 160 µM
same,Vmax,[4],0.448 µmol/min/mg
same,kcat,[4],1.35 ± 0.08 s⁻¹
same,kcat/Km,[4],3230 ± 1240 M⁻¹ s⁻¹
same,Km,[5],3940 ± 990 µM
same,Vmax,[5],0.057 µmol/min/mg
same,kcat,[5],0.17 ± 0.02 s⁻¹
same,kcat/Km,[5],50 ± 20 M⁻¹ s⁻¹
B2,Km,[6],310 ± 110 µM
same,Vmax,[6],6.88 µmol/min/mg
same,kcat,[6],19.8 ± 0.93 s⁻¹
same,kcat/Km,[6],74400 ± 29400 M⁻¹ s⁻¹
same,Km,[7],3080 ± 990 µM
same,Vmax,[7],4.36 µmol/min/mg
same,kcat,[7],12.6 ± 1.43 s⁻¹
same,kcat/Km,[7],4680 ± 2020 M⁻¹ s⁻¹
same,Km,[8],2770 ± 520 µM
same,Vmax,[8],3.19 µmol/min/mg
same,kcat,[8],9.21 ± 0.78 s⁻¹
same,kcat/Km,[8],3500 ± 940 M⁻¹ s⁻¹
same,Km,[9],710 ± 210 µM
same,Vmax,[9],3.63 µmol/min/mg
same,kcat,[9],10.4 ± 0.39 s⁻¹
same,kcat/Km,[9],16300 ± 4620 M⁻¹ s⁻¹
